Results on 4 molecules are retold here after patent publication US20260146107A1 (ALLIGATOR BIOSCIENCE, published 2026).

For assay [1], the target named is T1, human CEACAM5, recombinant (R&D Systems #4128-CM-050) (human, UniProt P06731 35-685).
T1 construct: Bought; coated in ELISA and used as monomeric analyte in Octet; also called hCEACAM-5; Human CEACAM5-His; not shown: His tag
T1 sequence (looked up): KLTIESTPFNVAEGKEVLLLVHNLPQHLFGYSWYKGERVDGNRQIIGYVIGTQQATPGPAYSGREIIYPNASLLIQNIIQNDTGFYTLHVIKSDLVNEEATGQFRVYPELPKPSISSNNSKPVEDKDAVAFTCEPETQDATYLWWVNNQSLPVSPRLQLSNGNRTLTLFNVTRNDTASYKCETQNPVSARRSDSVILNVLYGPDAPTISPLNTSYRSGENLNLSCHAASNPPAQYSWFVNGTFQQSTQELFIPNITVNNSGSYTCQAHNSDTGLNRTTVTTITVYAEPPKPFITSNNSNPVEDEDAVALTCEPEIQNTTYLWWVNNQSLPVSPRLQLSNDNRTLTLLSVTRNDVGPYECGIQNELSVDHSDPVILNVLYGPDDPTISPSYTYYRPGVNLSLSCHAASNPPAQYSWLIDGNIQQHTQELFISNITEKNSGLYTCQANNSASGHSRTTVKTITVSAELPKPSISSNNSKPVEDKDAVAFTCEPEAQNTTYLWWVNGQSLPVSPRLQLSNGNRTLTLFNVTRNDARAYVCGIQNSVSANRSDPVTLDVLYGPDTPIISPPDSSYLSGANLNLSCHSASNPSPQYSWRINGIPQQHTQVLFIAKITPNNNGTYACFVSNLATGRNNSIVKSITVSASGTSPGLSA
The assay is described as follows: Octet BLI, IgG1 captured on AHC tips, CEACAM5-His in solution, 1:1 fit. As for the experimental part:
Kinetic measurements were performed in the Octet RED96 platform using several different setups. Monoclonal antibodies (listed in Table 9), serially diluted ½ starting at 100 nM, were captured to anti human IgG Fc Capture (AHC) Biosensor tips (Sartorius #18-5060). Human CEACAM5-His (R&D Systems #4128-CM-050) diluted in 1× kinetic buffer (Sartorius) at 100 nM was then added. Binding kinetics was studied in 1× kinetic buffer where association was allowed for 300 sec followed by dissociation for 600 sec. Sensor tips were regenerated with 10 mM Glycine pH 1.7. Data generated were referenced by subtracting blank or parallel buffer blank, the baseline was aligned to the y-axis, inter-step correction by alignment against dissociation was performed and the data was smoothed by Savitzky-Golay filter in the data analysis software (v9.0.0.14). The processed data was fitted using a 1:1 Langmuir binding model with R² or X² as a measurement of fitting accuracy.

The target of assay [2] is T2, human CEACAM1 expressed on CHO cells (human, UniProt P13688 35-526).
T2 construct: whole, on cells; also called CHO-CEACAM1; CEACAM1 on cells
T2 sequence (looked up): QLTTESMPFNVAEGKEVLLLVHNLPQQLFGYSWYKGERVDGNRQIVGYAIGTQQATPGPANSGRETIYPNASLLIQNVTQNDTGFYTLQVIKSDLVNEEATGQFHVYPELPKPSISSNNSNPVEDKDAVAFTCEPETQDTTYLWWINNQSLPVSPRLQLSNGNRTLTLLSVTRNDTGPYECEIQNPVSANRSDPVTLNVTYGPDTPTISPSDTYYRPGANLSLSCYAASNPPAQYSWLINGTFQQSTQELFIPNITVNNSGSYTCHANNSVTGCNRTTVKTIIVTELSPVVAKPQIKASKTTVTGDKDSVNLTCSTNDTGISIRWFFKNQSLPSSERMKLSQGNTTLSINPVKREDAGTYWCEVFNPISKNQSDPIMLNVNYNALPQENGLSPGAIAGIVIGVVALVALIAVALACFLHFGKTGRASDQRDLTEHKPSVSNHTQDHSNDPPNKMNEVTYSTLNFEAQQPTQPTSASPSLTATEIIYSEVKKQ
The assay is described as follows: flow cytometry, transfected CHO cells, IgG1. From the text: Binding of the antibodies was detected using fluorochrome-conjugated anti-human IgG and analysed using flow cytometry.
In general terms: A flow cytometer gives signals particle by particle.

Assay [3] concerns the target T3, CEACAM-8, recombinant (R&D Systems #9639-CM-050) (UniProt P31997 35-320).
T3 sequence (looked up): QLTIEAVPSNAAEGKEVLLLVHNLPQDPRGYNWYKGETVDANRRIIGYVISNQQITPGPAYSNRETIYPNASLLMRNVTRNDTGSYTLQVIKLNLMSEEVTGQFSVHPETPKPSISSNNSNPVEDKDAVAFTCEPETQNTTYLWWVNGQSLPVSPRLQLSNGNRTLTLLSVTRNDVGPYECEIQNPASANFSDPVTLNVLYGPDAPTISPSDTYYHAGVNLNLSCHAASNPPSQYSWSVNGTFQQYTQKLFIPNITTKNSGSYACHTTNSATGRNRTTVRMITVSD
The assay is described as follows: ELISA, cross-reactivity to other CEA family members. As for the experimental part: (§1) 96-well plates were coated with 0.5 μg/mL antigen, hCEACAM-5 (4128-CM-050, R&D Systems), hCEACAM-1 (2244-CM-050, R&D Systems), hCEACAM-6(3934-CM-050, R&D Systems) or CEACAM-8 (9639-CM-050, R&D Systems) in PBS over night at 4° C. After washing with PBS/0.05% Tween 20 (PBST), the plates were blocked with PBST, 2% BSA for at least 30 minutes at room temperature before a second round of washing. […] After washing, plates were incubated with 50 μl detection antibody (0.5 μg/ml HRP conjugated goat anti human-kappa light chain, #STAR127P, AbD Serotec). Finally, a final round of washing was performed and bound complexes detected using SuperSignal Pico Luminescent as substrate and luminescence signals were measured using Fluostar Optima.
A general note: An ELISA detects its analyte on a solid surface through an enzyme-linked reagent.

In assay [4] the target is T4, human CEACAM1, recombinant (R&D Systems #2244-CM-050) (human, UniProt P13688 35-428).
T4 construct: also called hCEACAM-1
T4 sequence (looked up): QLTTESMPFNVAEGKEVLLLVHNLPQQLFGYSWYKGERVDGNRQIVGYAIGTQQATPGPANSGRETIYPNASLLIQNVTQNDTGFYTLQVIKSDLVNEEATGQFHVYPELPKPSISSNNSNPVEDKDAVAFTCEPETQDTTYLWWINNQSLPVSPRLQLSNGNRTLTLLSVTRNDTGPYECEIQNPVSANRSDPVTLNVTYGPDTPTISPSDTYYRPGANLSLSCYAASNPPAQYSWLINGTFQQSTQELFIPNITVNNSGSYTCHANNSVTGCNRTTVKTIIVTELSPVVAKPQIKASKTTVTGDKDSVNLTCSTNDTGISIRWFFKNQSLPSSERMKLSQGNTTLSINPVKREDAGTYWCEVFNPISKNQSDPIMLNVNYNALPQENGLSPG
The description is as above. How it is done:
as §1

In assay [5] the target is T5, human CEACAM6, recombinant (R&D Systems #3934-CM-050) (human, UniProt P40199 35-320).
T5 construct: also called hCEACAM-6
T5 sequence (looked up): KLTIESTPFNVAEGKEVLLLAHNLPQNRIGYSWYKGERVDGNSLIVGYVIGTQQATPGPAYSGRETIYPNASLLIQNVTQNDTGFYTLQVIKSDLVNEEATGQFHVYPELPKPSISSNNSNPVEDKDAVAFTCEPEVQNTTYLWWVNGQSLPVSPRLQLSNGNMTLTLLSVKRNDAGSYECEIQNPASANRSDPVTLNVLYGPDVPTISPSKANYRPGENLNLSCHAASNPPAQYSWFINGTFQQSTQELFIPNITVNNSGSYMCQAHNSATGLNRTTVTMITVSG
The assay is described as above. As for the experimental part: as §1

Numbering of substitutions follows the chain as printed.

B1: AC_05060 (antibody, human IgG1, kappa, V domains shown)
VH: EVQLLESGGGLVQPGGSLRLSCAASGFTFGSYYMSWVRQAPGKGLEWVSGISGYGYYTGYADSVKGRFTISRDNSKNTLYLQMNSLRAEDTAVYYCARHGYGVIDYWGQGTLVTVSS
VL: DIQMTQSPSSLSASVGDRVTITCRASQSIRDYLNWYQQKPGKAPKLLIYAASSLQSGVPSRFSGSGSGTDFTLTISSLQPEDFATYYCQQGTFPFTFGQGTKLEIKR
B1: the Kd (as a rule, the equilibrium constant for the complex coming apart) in assay [1] worked out at 6 nM. In addition, in assay [1], the koff – broadly, the first-order rate constant of dissociation – was found to be 0.002 s⁻¹. In assay [1], the kon (commonly a measure of how fast the partners come together) is 400000 M⁻¹ s⁻¹. In addition, the binding result in assay [2] was “no binding (tested: 0.5 and 5 µg/ml)”; in assay [3], “no binding (tested: 0.4 µg/ml)”; in assay [4], “no binding (tested: 0.4 µg/ml)”; in assay [5] it was “no binding (tested: 0.4 µg/ml)”.

B2: AC_05064 (antibody, human IgG1, kappa, V domains shown)
VH: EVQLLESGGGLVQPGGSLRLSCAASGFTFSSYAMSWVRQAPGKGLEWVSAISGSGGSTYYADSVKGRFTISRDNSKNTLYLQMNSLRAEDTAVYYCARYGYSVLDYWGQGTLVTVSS
VL: DIQMTQSPSSLSASVGDRVTITCRASQSISSYLNWYQQKPGKAPKLLIYAASSLQSGVPSRFSGSGSGTDFTLTISSLQPEDFATYYCQQYPWYFPYTFGQGTKLEIKR
In the case of B2, the dissociation constant Kd in assay [1] came out at 0.4 nM. The koff in assay [1] worked out at 6e-05 s⁻¹. For the same molecule, in assay [1], the association rate constant (kon) came out at 100000 M⁻¹ s⁻¹. Also, the binding result is “no binding (tested: 0.5 and 5 µg/ml)” in assay [2]; “no binding (tested: 0.4 µg/ml)” in assay [3]; “no binding (tested: 0.4 µg/ml)” in assay [4]; “no binding (tested: 0.4 µg/ml)” in assay [5].

B3: AC_05061 (antibody, human IgG1, kappa, V domains shown)
VH: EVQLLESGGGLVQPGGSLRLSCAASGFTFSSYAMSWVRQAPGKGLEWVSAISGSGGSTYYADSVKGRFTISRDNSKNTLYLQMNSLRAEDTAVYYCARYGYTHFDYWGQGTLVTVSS
VL: DIQMTQSPSSLSASVGDRVTITCRASQSISSYLNWYQQKPGKAPKLLIYAASSLQSGVPSRFSGSGSGTDFTLTISSLQPEDFATYYCQQGAYVPYTFGQGTKLEIKR
As to B3, the Kd in assay [1] was determined as 20 nM. The koff in assay [1] was 0.002 s⁻¹. The association rate constant (kon) in assay [1] amounted to 100000 M⁻¹ s⁻¹. In addition, the binding result in assay [2] is “no binding (tested: 0.5 and 5 µg/ml)”; in assay [3], “no binding (tested: 0.4 µg/ml)”; in assay [4], “no binding (tested: 0.4 µg/ml)”; in assay [5] it was “no binding (tested: 0.4 µg/ml)”.

B4: AC_05062 (antibody, human IgG1, kappa, V domains shown)
VH: not shown
VL: B3 VL with S28A, S31G, A50S, G91S, A92Y, Y93S, V94T
B4: in assay [1], the dissociation constant Kd was 0.9 nM. Further, in assay [1], the koff was found to be 0.002 s⁻¹. Further, the kon in assay [1] turned out to be 2e+06 M⁻¹ s⁻¹. The binding result in assay [2] is “no binding (tested: 0.5 and 5 µg/ml)”; in assay [3], “no binding (tested: 0.4 µg/ml)”; in assay [4], “no binding (tested: 0.4 µg/ml)”; in assay [5] it was “no binding (tested: 0.4 µg/ml)”.
